This is an account of results in the supplement of paper PMC10567573.

The chains are these.
B1: EHMT1 (parent)
chain: EEINKNISDFGRQQLLPPFPSLHQ
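Note: lentivirally expressed fusions sorted by FACS into six bins by GFP to DsRed ratio, PSI derived from sequencing read proportions per bin multiplied by bin number.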

The variants in the series derive from B1. In words: protein stability index of a GFP-peptide fusion (GPS, HEK-293T) (PSI 1-6); higher = more stable. Particulars: c terminus: a fixed tail appended.
EEINKNISDFGRQQLLPPFPCLHQ [S21C]: the protein stability index was 3.06.
The same measure for EEINKNISDFGRQQLLPPFPWLHQ [S21W]: 1.98; for EEINKNISDFGRQQLLPPFPTLHQ [S21T]: 3.
The figure for EEINKNISDFGRQQLLPPFPYLHQ [S21Y] is 2.54.
In the case of EEINKNISDFGRQQLLPPFPNLHQ [S21N], the protein stability index is 2.73.
The same measure for EEINKNISDFGRQQLLPPFPKLHQ [S21K]: 3.68.
The same measure for EEINKNISDFGRQQLLPPFPQLHQ [S21Q]: 3.33; for EEINKIISDFGRQQLLPPFPSLHQ [N6I]: 2.17; for EEINKGISDFGRQQLLPPFPSLHQ [N6G]: 2.91.
The same measure for EEINKPISDFGRQQLLPPFPSLHQ [N6P]: 2.92.
On to EEINKVISDFGRQQLLPPFPSLHQ [N6V], for which the protein stability index worked out at 2.71.
As for EEINKLISDFGRQQLLPPFPSLHQ [N6L], the protein stability index was 1.97.
The same measure for EEINKHISDFGRQQLLPPFPSLHQ [N6H]: 2.4.
The same measure for EEINKEISDFGRQQLLPPFPSLHQ [N6E]: 2.91; for EEINKWISDFGRQQLLPPFPSLHQ [N6W]: 1.76.
The figure for EEINKDISDFGRQQLLPPFPSLHQ [N6D] is 3.15.
On to EEINKTISDFGRQQLLPPFPSLHQ [N6T], for which the protein stability index came to 2.65.
Take EEINDNISDFGRQQLLPPFPSLHQ [K5D]: the protein stability index came out at 3.37.
The same measure for EEINMNISDFGRQQLLPPFPSLHQ [K5M]: 3.23; for EEINQNISDFGRQQLLPPFPSLHQ [K5Q]: 3.11.
The figure for EEINVNISDFGRQQLLPPFPSLHQ [K5V] is 2.68; for EEINSNISDFGRQQLLPPFPSLHQ [K5S] it is 2.84.
The same measure for EEINTNISDFGRQQLLPPFPSLHQ [K5T]: 3.16; for EEINKNISDFGRQQLLPRFPSLHQ [P18R]: 3.57; for EEINKNISDFGRQQLLPFFPSLHQ [P18F]: 2.91.
For EEINKNISDFGRQQLLPHFPSLHQ [P18H], the protein stability index was 3.15.
As to EEINKNISDFGRQQLLPGFPSLHQ [P18G], the protein stability index came to 3.31.
The figure for EEINKNISDFGRQQLLPMFPSLHQ [P18M] is 2.95.
The same measure for EEINKNISDFGRQQLLPLFPSLHQ [P18L]: 3.07; for EEINKNISDFGRQQLLPWFPSLHQ [P18W]: 3.06; for EEINKNISDFGRQQLLPNFPSLHQ [P18N]: 3.05.
The same measure for EEINKNISDFGRQQLLPIFPSLHQ [P18I]: 2.87; for EEIFKNISDFGRQQLLPPFPSLHQ [N4F]: 2.15; for EEIAKNISDFGRQQLLPPFPSLHQ [N4A]: 2.63.
As to EEIMKNISDFGRQQLLPPFPSLHQ [N4M], the protein stability index is 2.52.
The same measure for EEIIKNISDFGRQQLLPPFPSLHQ [N4I]: 2.02; for EEISKNISDFGRQQLLPPFPSLHQ [N4S]: 2.45.
The figure for EEGNKNISDFGRQQLLPPFPSLHQ [I3G] is 3.01.
The figure for EEQNKNISDFGRQQLLPPFPSLHQ [I3Q] is 2.69; for EEVNKNISDFGRQQLLPPFPSLHQ [I3V] it is 2.9; for EEANKNISDFGRQQLLPPFPSLHQ [I3A] it is 3.1.
For the variant EEHNKNISDFGRQQLLPPFPSLHQ [I3H], the protein stability index was determined as 2.71.
EEFNKNISDFGRQQLLPPFPSLHQ [I3F]: the protein stability index was found to be 2.91.
The figure for EEDNKNISDFGRQQLLPPFPSLHQ [I3D] is 3.77; for EEYNKNISDFGRQQLLPPFPSLHQ [I3Y] it is 2.7; for EETNKNISDFGRQQLLPPFPSLHQ [I3T] it is 3.11.
The same measure for EENNKNISDFGRQQLLPPFPSLHQ [I3N]: 3.31; for EECNKNISDFGRQQLLPPFPSLHQ [I3C]: 2.76; for DEINKNISDFGRQQLLPPFPSLHQ [E1D]: 2.58.
On to HEINKNISDFGRQQLLPPFPSLHQ [E1H], for which the protein stability index was determined as 2.56.
Regarding PEINKNISDFGRQQLLPPFPSLHQ [E1P], the protein stability index came to 2.54.
The same measure for MEINKNISDFGRQQLLPPFPSLHQ [E1M]: 2.35; for GEINKNISDFGRQQLLPPFPSLHQ [E1G]: 2.7; for VEINKNISDFGRQQLLPPFPSLHQ [E1V]: 2.22.
The same measure for YEINKNISDFGRQQLLPPFPSLHQ [E1Y]: 2.11; for AEINKNISDFGRQQLLPPFPSLHQ [E1A]: 2.47; for KEINKNISDFGRQQLLPPFPSLHQ [E1K]: 2.74.
Consider SEINKNISDFGRQQLLPPFPSLHQ [E1S], for which the protein stability index came to 3.23.
The same measure for EEINKNISDFGRQQLLPPFPSLHD [Q24D]: 4.02; for EEINKNISDFGRQQLLPPFPSLHF [Q24F]: 2.81.
With EEINKNISDFGRQQLLPPFPSLHY [Q24Y], the protein stability index came to 2.49.
The figure for EEINKNISDFGRQQLLPPFPSLHE [Q24E] is 4.23.
The figure for EEINKNISDFGRQQLLPPFPSLHV [Q24V] is 2.65.
In the case of EEINKNISDFGRQQLLPPFPSLHK [Q24K], the protein stability index worked out at 3.55.
The same measure for EEINKNISDLGRQQLLPPFPSLHQ [F10L]: 2.91; for EEINKNISDGGRQQLLPPFPSLHQ [F10G]: 3.39; for EEINKNISDSGRQQLLPPFPSLHQ [F10S]: 3.4.
The figure for EEINKNISDEGRQQLLPPFPSLHQ [F10E] is 3.37.
The same measure for EEINKNISDHGRQQLLPPFPSLHQ [F10H]: 2.99; for EEINKNISDTGRQQLLPPFPSLHQ [F10T]: 2.86.
For EEINKNISDMGRQQLLPPFPSLHQ [F10M], the protein stability index was 3.04.
Take EEINKNISDIGRQQLLPPFPSLHQ [F10I]: the protein stability index is 2.52.
EEINKNISDCGRQQLLPPFPSLHQ [F10C]: the protein stability index is 2.6.
Consider EEINKNISDQGRQQLLPPFPSLHQ [F10Q], for which the protein stability index was 3.3.
The figure for EEINKNKSDFGRQQLLPPFPSLHQ [I7K] is 2.79; for EEINKNRSDFGRQQLLPPFPSLHQ [I7R] it is 2.42.
EEINKNGSDFGRQQLLPPFPSLHQ [I7G]: the protein stability index turned out to be 3.3.
The figure for EEINKNDSDFGRQQLLPPFPSLHQ [I7D] is 3.21.
Turning to EEINKNLSDFGRQQLLPPFPSLHQ [I7L], the protein stability index worked out at 2.97.
The figure for EEINKNWSDFGRQQLLPPFPSLHQ [I7W] is 2.52.
With EEINKNSSDFGRQQLLPPFPSLHQ [I7S], the protein stability index amounted to 2.83.
The same measure for EEINKNFSDFGRQQLLPPFPSLHQ [I7F]: 3.31; for EEINKNESDFGRQQLLPPFPSLHQ [I7E]: 3.38.
The same measure for EEINKNYSDFGRQQLLPPFPSLHQ [I7Y]: 2.73; for EEINKNISDFGRQQLLPPFNSLHQ [P20N]: 3.32.
The figure for EEINKNISDFGRQQLLPPFRSLHQ [P20R] is 2.5; for EEINKNISDFGRQQLLPPFGSLHQ [P20G] it is 3.37.
EEINKNISDFGRQQLLPPFWSLHQ [P20W]: the protein stability index worked out at 1.82.
The same measure for EEINKNISDFGRQQLLPPFMSLHQ [P20M]: 2.51; for EEINKNISDFGRQQLLPPFESLHQ [P20E]: 3.73; for EEINKNISDFGRQQLLPPFISLHQ [P20I]: 2.69.
EEINKNISDFGQQQLLPPFPSLHQ [R12Q]: the protein stability index was determined as 2.97.
As to EEINKNISDFGMQQLLPPFPSLHQ [R12M], the protein stability index is 2.47.
The figure for EEINKNISDFGHQQLLPPFPSLHQ [R12H] is 2.77.
